Measurements as given in patent US20220235136A1, “METHODS AND COMPOSITIONS FOR TREATING A DISEASE OR DISORDER” (YALE UNIVERSITY, priority 2019, published 2022).

Biological target: T1, CD93 (Homo sapiens, UniProt Q9NPY3)
T1 construct: expressed in transfected cells; host or cells: 293 cells (CD93+ 293)
T1 sequence (Q9NPY3 22-652): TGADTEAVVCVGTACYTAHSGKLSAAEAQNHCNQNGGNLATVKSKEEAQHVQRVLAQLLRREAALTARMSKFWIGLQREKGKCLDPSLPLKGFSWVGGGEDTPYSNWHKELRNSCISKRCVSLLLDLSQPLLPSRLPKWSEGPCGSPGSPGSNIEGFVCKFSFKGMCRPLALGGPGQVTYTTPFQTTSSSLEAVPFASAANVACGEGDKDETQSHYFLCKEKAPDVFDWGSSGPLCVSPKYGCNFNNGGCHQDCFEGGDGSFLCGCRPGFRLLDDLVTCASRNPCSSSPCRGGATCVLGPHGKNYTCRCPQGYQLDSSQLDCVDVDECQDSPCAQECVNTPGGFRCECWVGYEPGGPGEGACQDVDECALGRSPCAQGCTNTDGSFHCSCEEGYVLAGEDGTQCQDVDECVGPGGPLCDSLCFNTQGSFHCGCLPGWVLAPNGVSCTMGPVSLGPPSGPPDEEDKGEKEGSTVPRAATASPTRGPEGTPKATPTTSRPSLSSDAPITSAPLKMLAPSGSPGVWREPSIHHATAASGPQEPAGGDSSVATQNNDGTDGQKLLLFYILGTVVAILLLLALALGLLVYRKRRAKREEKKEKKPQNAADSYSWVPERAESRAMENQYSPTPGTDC
Experiment: binding of Ig fusion proteins to CD93 transfectant (flow cytometry)
Conditions: flow cytometry
Excerpt: FIGS. 10A-10B show identification of the binding domain on IGFBP7 for CD93. Each extracellular domain for IGFBP7, including insulin binding (IB). Kazal, and Ig, was swapped with the corresponding domain on IGFBPL1 using PCR cloning and fused to a C-terminal Ig. These chimeric mutants were transiently expressed in HEK293T cells and supernatants were used to stain CD93 transfectant. FIG. 10A depicts whether multiple chimeric IGFBP7 mutants bind to CD93. FIG. 10B depicts various human genes containing IB-domain constructed onto an expression vector containing Fc-Tag. Constructs were transiently transduced into HEK293T cells to produce Fc tagged fusion proteins in the supernatant. Supernatant was used to stain CD93 transfectant by flow cytometry. Binding index represents the ratio of binding MFI of CD93 transfectant to control cells.
The IGFBP7-IGFBPL1 chimeras were generated by two-step PCR. […]
Cell surface and intercellular staining and analysis by flow cytometry were followed the protocol previously described (71). Dead cells were excluded with SYTOX® (Blue Dead Cell Stain Kit (Thermo Fisher Scientific). Flow cytometric analysis was conducted with a BD FACS Calibur or a BD LSRFortessa™ cell analyzer (BD Bioscience, Franklin Lakes, N.J. USA), and then data were analyzed by FlowJo software (Tree Star Inc.)

B1: IGFBPL1: a IGFBP-related protein that does not bind CD93 (protein, UniProt Q8WX77 26-278, looked up)
Insulin-like growth …: LGIRDVGGRRPKCGPCRPEGCPAPAPCPAPGISALDECGCCARCLGAEGASCGGRAGGRCGPGLVCASQAAGAAPEGTGLCVCAQRGTVCGSDGRSYPSVCALRLRARHTPRAHPGHLHKARDGPCEFAPVVVVPPRSVHNVTGAQVGLSCEVRAVPTPVITWRKVTKSPEGTQALEELPGDHVNIAVQVRGGPSDHEATAWILINPLRKEDEGVYQCHAANMVGEAESHSTVTVLDLSKYRSFHFPAPDDRM
**Q.** With B1 as the molecule, how does the “binding to CD93 293 cells / CD93 transfectant” value read?
**A.** Its value is “does not bind”.
